The values below come from the Immune Epitope Database (IEDB).

Targets include HLA-A*31:01; HLA-A*11:01; HLA-A*03:01; HLA-A*33:01; HLA-A*68:01.
Holding throughout (test): IEDB peptide-MHC binding, purified MHC/competitive/radioactivity; filed as Kd, often an IC50 or EC50 that approximates it; ≥ and ≤ were set here for values at or beyond the usual limits of such assays
Setting [1] is: source organism: SARS coronavirus Tor2.
[2] abbreviates: source organism: Vaccinia virus WR.
Setting [3] is: source organism: Lassa virus Josiah.
The mark [4] stands for this setting: source organism: Mammarenavirus whitewaterense.
Setting [5] is: source organism: Mammarenavirus juninense.
Where [6] appears, read: source organism: Mammarenavirus lassaense.

A word on the Kd: it is the concentration at which binding is half-saturated.

A value given as a limit tells only on which side of the number the result lay.

As for RFNVAITRAK, the Kd is 0.064 µM in the assay with HLA-A*31:01 (setting [1]); 0.179 µM in the assay with HLA-A*11:01 (setting [1]); 0.168 µM with HLA-A*03:01 (setting [1]); 7.77 µM in the assay with HLA-A*33:01 (setting [1]); 0.168 µM with HLA-A*68:01 (setting [1]).
Turning to LVCFPSTQR, the Kd with HLA-A*31:01 (setting [2]) was 0.0375 µM; in the assay with HLA-A*11:01 (setting [2]), 0.0406 µM; with HLA-A*03:01 (setting [2]), 0.698 µM; with HLA-A*33:01 (setting [2]), 0.073 µM; with HLA-A*68:01 (setting [2]), 0.0108 µM.
For AFDAPTLYVK, the Kd in the assay with HLA-A*31:01 (setting [2]) was 3.84 µM; in the assay with HLA-A*11:01 (setting [2]), 0.271 µM; in the assay with HLA-A*03:01 (setting [2]), 2.28 µM; with HLA-A*33:01 (setting [2]), at least 56 µM; with HLA-A*68:01 (setting [2]) it was 0.134 µM.
For NARMATMLEY, in that order: 0.734 µM, 0.0343 µM, 0.169 µM, at least 69.1 µM and 0.455 µM.
As to KTWMDIEGR, the Kd stood at 0.12 µM with HLA-A*31:01 (setting [3]); 1.13 µM with HLA-A*11:01 (setting [3]); 8.46 µM with HLA-A*03:01 (setting [3]); 1.71 µM in the assay with HLA-A*33:01 (setting [3]); 1.82 µM in the assay with HLA-A*68:01 (setting [3]).
Consider ASGQRCHFIK, for which the Kd with HLA-A*31:01 (setting [2]) is 1.47 µM; in the assay with HLA-A*11:01 (setting [2]), 0.0125 µM; with HLA-A*03:01 (setting [2]), 0.927 µM; with HLA-A*33:01 (setting [2]) it was at least 63.3 µM; with HLA-A*68:01 (setting [2]) it was 5.13 µM.
For ETVKMGAFMY, in that order: at least 31.5 µM, 1.57 µM, at least 70.1 µM, at least 70 µM and 0.0616 µM.
On to SLSPNDTTWI, for which the Kd with HLA-A*31:01 (setting [4]) is at least 32.3 µM; in the assay with HLA-A*11:01 (setting [4]), at least 69.7 µM; with HLA-A*03:01 (setting [4]), at least 34.6 µM; in the assay with HLA-A*33:01 (setting [4]), at least 60.7 µM; with HLA-A*68:01 (setting [4]), at least 70.1 µM.
Regarding KLDNHDILTY, the Kd was 9.28 µM with HLA-A*31:01 (setting [2]); 0.602 µM in the assay with HLA-A*11:01 (setting [2]); 0.104 µM in the assay with HLA-A*03:01 (setting [2]); at least 70 µM with HLA-A*33:01 (setting [2]); 16.4 µM with HLA-A*68:01 (setting [2]).
As to YSISNDLLY, the Kd with HLA-A*31:01 (setting [2]) was 0.249 µM; in the assay with HLA-A*11:01 (setting [2]) it was 0.337 µM; with HLA-A*03:01 (setting [2]), 1.19 µM; with HLA-A*33:01 (setting [2]), at least 65.5 µM; with HLA-A*68:01 (setting [2]) it was 2.31 µM.
For VLFSIFYKDY, in that order: 1.2 µM, 0.972 µM, 0.668 µM, 3.09 µM and 1.16 µM.
For VAGTGVQFY, in that order: at least 53.9 µM, at least 26.5 µM, 7.27 µM, at least 77.7 µM and at least 77.7 µM.
The corresponding values for STQQNKLVIR are 0.154 µM, 2.24 µM, 17.9 µM, 4.47 µM and 0.631 µM.
Consider GKQYIHCFRK, for which the Kd is 3.67 µM with HLA-A*31:01 (setting [5]); 1.51 µM with HLA-A*11:01 (setting [5]); 2.21 µM with HLA-A*03:01 (setting [5]); at least 29.5 µM with HLA-A*33:01 (setting [5]); 1.73 µM with HLA-A*68:01 (setting [5]).
Consider SVANGVPVH, for which the Kd was at least 30.3 µM with HLA-A*31:01 (setting [6]); 9.78 µM in the assay with HLA-A*11:01 (setting [6]); 2.27 µM with HLA-A*03:01 (setting [6]); at least 77.7 µM in the assay with HLA-A*33:01 (setting [6]); 8.07 µM in the assay with HLA-A*68:01 (setting [6]).
Consider AITDNGPMPY, for which the Kd with HLA-A*31:01 (setting [2]) is at least 60 µM; with HLA-A*11:01 (setting [2]), 0.34 µM; with HLA-A*03:01 (setting [2]) it was 0.251 µM; with HLA-A*33:01 (setting [2]), at least 49.6 µM; with HLA-A*68:01 (setting [2]), at least 23.5 µM.
Turning to YLCGFIKQK, the Kd is 3.43 µM with HLA-A*31:01 (setting [1]); 1.65 µM in the assay with HLA-A*11:01 (setting [1]); 0.511 µM in the assay with HLA-A*03:01 (setting [1]); at least 46.7 µM with HLA-A*33:01 (setting [1]); 6 µM with HLA-A*68:01 (setting [1]).
With DMMLMIGNY, the Kd with HLA-A*31:01 (setting [2]) is 11 µM; in the assay with HLA-A*11:01 (setting [2]), 12.7 µM; with HLA-A*03:01 (setting [2]), at least 47.7 µM; with HLA-A*33:01 (setting [2]) it was 3.82 µM; with HLA-A*68:01 (setting [2]) it was 0.78 µM.
Turning to TAVAKCNEKH, the Kd in the assay with HLA-A*31:01 (setting [3]) was at least 40.1 µM; with HLA-A*11:01 (setting [3]) it was at least 69.7 µM; with HLA-A*03:01 (setting [3]) it was at least 70 µM; in the assay with HLA-A*33:01 (setting [3]) it was at least 61.8 µM; with HLA-A*68:01 (setting [3]), at least 70.1 µM.
Regarding QLVFNSISAR, the Kd in the assay with HLA-A*31:01 (setting [2]) came to 0.111 µM; in the assay with HLA-A*11:01 (setting [2]) it was 0.299 µM; in the assay with HLA-A*03:01 (setting [2]), 0.304 µM; with HLA-A*33:01 (setting [2]), 0.723 µM; with HLA-A*68:01 (setting [2]), 0.0492 µM.
On to IMSIGFEAR, for which the Kd in the assay with HLA-A*31:01 (setting [2]) was 0.0303 µM; in the assay with HLA-A*11:01 (setting [2]), 3.14 µM; with HLA-A*03:01 (setting [2]) it was 4.95 µM; with HLA-A*33:01 (setting [2]), 0.367 µM; with HLA-A*68:01 (setting [2]), 0.221 µM.
For the sequence TLEEAKTALK, the Kd with HLA-A*31:01 (setting [1]) was at least 47.6 µM; with HLA-A*11:01 (setting [1]), 4.63 µM; with HLA-A*03:01 (setting [1]) it was 1.35 µM; in the assay with HLA-A*33:01 (setting [1]), at least 70 µM; with HLA-A*68:01 (setting [1]), at least 10 µM.
With HQNSKKTTK, the Kd in the assay with HLA-A*31:01 (setting [1]) was 1.98 µM; with HLA-A*11:01 (setting [1]), 2.08 µM; with HLA-A*03:01 (setting [1]) it was 1.1 µM; with HLA-A*33:01 (setting [1]), at least 77.7 µM; in the assay with HLA-A*68:01 (setting [1]), at least 77.7 µM.
